{"source": "patent US20190353661A1", "about": "(VANDERBILT UNIVERSITY, published 2019)", "binders": {"B1": {"name": "Human IgE mAb 1B7 (antibody, V domains shown)", "VH": "EFQLQESGPGLVKPSETLSLNCSVSGGSISNNYWNWIRQPPGKGLEWIGYISYSGRTHYNPSLKSRVSISLHTSKNHFSLKLTSVAAADTAMYYCARESTYSYKLGDAFDIWGQGTMVTVSA", "VL": "not shown"}, "B2": {"name": "Human IgE mAb 1A8 (antibody, V domains shown)", "VH": "QLQLQESGPGLVKPSETLSLTCSVSDDSISTPSYFWTWIRQPPGKGLEWIASIYYTGTTYYNPSLKSRVTLSVDTPKRQFFLRLSSVTAADTAVYYCARYLDYVWLRAFDVWGQGAMVTVSS", "VL": "EIVLTQSPATLSLSPGERATLSCRASPSVGRFLAWYQQKPGQAPRLLIYDASQRATDIPARFSASGSGTDFTLTIDSLEPEDFAIYYCQHRSNWPVTFGGGTRVEIK", "notes": "Natural human IgE from a hybridoma"}, "B3": {"name": "Human IgE mAb 8F3 (antibody, V domains shown)", "VH": "QLQLQESGPGLVKPSETLSLTCTVSDASIDTPSYFWSWIRQPPGKGLEWIGSIYYTGNKYSNPSLKSRVTMSVDTPKRQFSLRLSSVTAADTAVYYCARYVDYVWLRAFDIWGQGTRVTVSS", "VL": "EIVLTQSPATLSLSPGERATLSCRASPSAGRFLAWYQQRPGQAPRLLIYDASKRATDTPARFSGSGSGTDFNLTIASLEPEDFAVYYCQHRSNWPLTFGGGTKVEIK", "notes": "as for B2"}, "B4": {"name": "Human IgE mAb 14H4 (antibody, V domains shown)", "VH": "EVQLVQSGAEVKRAGESLKISCKGSGYPFATYWVGWVRQMPGKGLEWMTIIYPEDSDTRYSPSFQDHVTISADKSLSTAYLQWSSLKASDTAMYYCARVSRYYYDSRSYYPDAFDIWGQGTMVTVSS", "VL": "SYELTQPPSVSVSPGQTASITCSGDKLGDKYVCWYQQKPGRSPVLVVHQDTKRPSGIPERFSGSNSGDTATLTISGTQAMDEADYYCQAWDSTIGVFGPGTRVTVL", "notes": "as for B2"}, "B5": {"name": "Human IgE mAb 1C14 (antibody, V domains shown)", "VH": "QVQLQESGPGLVKPSQTLSLTCTVSGGSISSGGFFWGWIRQHPGRDLEWIGYIFYTGSTNYNPSLKNRVTLSVDTSKNHFSLNLTSVTVADTAVYYCARQGGVRGNYYFMDVWGKGTTVTVSS", "VL": "DIQMTQSPSSLSASVGDRVTITCRASQSISNYLNWYQQKPGKAPKLLIYAASRLQSGVPSRFSGSGSGTELTLTISSLQPEDFATYFCQQSYNTPYSFGQGTKVEIK", "notes": "as for B2"}}, "test_in_all_cases": "Phadia diagnostics and/or Western blot", "key": {"Cat allergen Fel d 1": {"target": "T1, Cat allergen Fel d 1 (cat, UniProt P30438 23-92; P30440 18-109)", "T1 sequence (looked up) 1": "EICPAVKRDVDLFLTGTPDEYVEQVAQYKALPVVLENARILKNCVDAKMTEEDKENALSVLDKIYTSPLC", "T1 sequence (looked up) 2": "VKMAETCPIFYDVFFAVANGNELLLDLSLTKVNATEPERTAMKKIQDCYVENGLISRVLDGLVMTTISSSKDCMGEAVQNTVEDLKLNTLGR"}, "Peanut allergen Ara h 6": {"target": "T2, Peanut allergen Ara h 6 (peanut, UniProt Q647G9 22-145)", "T2 sequence (looked up)": "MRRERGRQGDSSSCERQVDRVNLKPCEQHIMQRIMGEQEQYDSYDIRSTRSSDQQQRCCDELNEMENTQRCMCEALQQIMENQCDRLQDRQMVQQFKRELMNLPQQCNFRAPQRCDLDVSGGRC"}, "[1]": {"target": "T3, Aspergillus fumigatus allergen Asp f 1 (Aspergillus fumigatus, UniProt P67875 28-176)", "T3 sequence": "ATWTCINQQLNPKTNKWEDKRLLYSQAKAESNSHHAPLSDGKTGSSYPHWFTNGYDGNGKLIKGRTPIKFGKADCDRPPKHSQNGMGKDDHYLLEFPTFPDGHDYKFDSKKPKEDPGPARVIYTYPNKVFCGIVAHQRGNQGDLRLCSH"}, "[2]": {"target": "T4, Dust mite allergen Der p 1 (dust mite (Dermatophagoides …, UniProt P08176 99-320))", "T4 sequence (looked up)": "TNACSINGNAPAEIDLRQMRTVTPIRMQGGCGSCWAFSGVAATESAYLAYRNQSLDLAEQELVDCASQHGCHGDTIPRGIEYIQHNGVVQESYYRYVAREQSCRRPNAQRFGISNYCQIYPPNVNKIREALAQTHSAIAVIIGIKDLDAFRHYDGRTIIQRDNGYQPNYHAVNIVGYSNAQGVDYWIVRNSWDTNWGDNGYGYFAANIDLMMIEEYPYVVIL"}}, "data": [{"binder": "B1", "values": [{"measurement": "binding result", "setting": "Cat allergen Fel d 1", "value": "binds"}]}, {"binder": "B2", "values": [{"measurement": "binding result", "setting": "Peanut allergen Ara h 6", "value": "binds"}]}, {"binder": "B3", "values": [{"measurement": "binding result", "setting": "Peanut allergen Ara h 6", "value": "binds"}]}, {"binder": "B4", "values": [{"measurement": "binding result", "setting": "[1]", "value": "binds"}]}, {"binder": "B5", "values": [{"measurement": "binding result", "setting": "[2]", "value": "binds"}]}]}
